These binders were tested against T1, human CD131 on 293T/CD131 cells (human, UniProt P32927 17-897) (assay: flow cytometry on 293T/CD131 cells, purified antibody, PE labeled secondary antibody).
T1 construct: whole, on cells; also called hCD131
T1 sequence (looked up): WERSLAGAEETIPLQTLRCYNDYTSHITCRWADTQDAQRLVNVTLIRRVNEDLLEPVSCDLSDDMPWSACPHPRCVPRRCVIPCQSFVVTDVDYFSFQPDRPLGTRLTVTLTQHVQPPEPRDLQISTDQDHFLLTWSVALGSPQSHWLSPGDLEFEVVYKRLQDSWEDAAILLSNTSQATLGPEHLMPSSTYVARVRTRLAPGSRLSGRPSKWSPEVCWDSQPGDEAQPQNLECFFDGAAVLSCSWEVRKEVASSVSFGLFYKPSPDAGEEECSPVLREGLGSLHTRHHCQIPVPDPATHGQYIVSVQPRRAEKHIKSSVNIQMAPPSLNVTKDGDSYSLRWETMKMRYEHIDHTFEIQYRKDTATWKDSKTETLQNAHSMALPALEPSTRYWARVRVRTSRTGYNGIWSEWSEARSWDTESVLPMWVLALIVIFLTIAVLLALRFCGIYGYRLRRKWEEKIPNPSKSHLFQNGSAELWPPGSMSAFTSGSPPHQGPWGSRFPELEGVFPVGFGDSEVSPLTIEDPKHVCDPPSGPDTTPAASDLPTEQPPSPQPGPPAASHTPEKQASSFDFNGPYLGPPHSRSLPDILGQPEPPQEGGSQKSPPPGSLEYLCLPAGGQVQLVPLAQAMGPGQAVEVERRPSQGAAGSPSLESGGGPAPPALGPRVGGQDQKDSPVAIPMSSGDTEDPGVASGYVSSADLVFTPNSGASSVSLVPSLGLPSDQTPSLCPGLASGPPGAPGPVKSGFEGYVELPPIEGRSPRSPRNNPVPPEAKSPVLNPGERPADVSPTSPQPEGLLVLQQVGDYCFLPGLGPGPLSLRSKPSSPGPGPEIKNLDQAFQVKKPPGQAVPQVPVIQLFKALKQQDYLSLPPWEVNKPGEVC

Row | Binder | binding result
1 | hybridoma clone M41 (antibody, V domains shown, Hybridoma from ATX-GK mice; tested as supernatant (BLI) and purified (cell staining, Stat5 assay); also called EPORab - M41) VH: QVQLVESGGGLVQPGRSLRLSCAASGFTFDDYAIHWVRQAPGKGLEWVSGISYNSENIGYADSVKGRFTISRDNAKNSLYLQMNSLRSEDTALYYCAKDMFLTWFSSFDYWGQGTLVTVSS VL: ETKLTQSPGTLSLSPGERTTLSCRASQSISNNYLAWYQQKPGQAPRLLIYRASTRATGIPDRFSGSGSGTDFTLTIRRLEPEDFAVYYCQRYGRSPLTFGGGTKVEIK | no binding
2 | hybridoma clone M2 (antibody, V domains shown, Hybridoma from ATX-GK mice; tested as supernatant (BLI) and purified (cell staining, Stat5 assay); also called EPORab - M2) VH: QVQLVESGGGLVKPGGSLRLSCAASGFTFSDSYMSWIRQAPGKGLEWVSYISNSGSYMYYADSVKGRFTISRDNAKNSLYLQMNNLRAEDTAVYYCARDKLGIGDYWGQGTLVTVSS VL: DIQMTQSPSSLSASVGDRVTITCRASQGIRNDLGWFQQKPGKAPKRLIYAASRLQSGVPSRFSGSGSGTEFTLTISSLQPEDFATYCCLQHHTYPPTFGQGTKVEIK | no binding

Each binder was assayed against T2, hCD131-Fc (IME021, inhouse) (human, UniProt P32927 17-443, limits assumed) (assay: Octet BLI, antibody from supernatant captured on anti-mouse Fc biosensors, 30 nM soluble receptor Fc fusion).
T2 construct: also called soluble CD131 subunit of hetero-EPOR; not shown: Fc
T2 sequence (looked up): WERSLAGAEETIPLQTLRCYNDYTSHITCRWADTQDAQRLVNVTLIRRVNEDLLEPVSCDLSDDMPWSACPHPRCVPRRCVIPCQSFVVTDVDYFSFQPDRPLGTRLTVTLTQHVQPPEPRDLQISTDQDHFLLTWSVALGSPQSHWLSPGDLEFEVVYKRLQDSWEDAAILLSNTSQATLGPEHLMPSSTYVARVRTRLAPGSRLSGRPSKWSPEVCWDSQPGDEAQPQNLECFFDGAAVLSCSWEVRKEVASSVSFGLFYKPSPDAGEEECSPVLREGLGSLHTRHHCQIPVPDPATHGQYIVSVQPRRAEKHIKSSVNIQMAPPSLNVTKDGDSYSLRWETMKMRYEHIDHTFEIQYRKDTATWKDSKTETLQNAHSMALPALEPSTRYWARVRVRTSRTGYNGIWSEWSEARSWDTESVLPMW

Row | Binder | binding result
3 | hybridoma clone M26 (antibody, V domains shown, Hybridoma from ATX-GK mice; also called EPORab - M26) VH: QVQLVQSGVEVKKPGASVKVSCKASGYAFSNNDISWVRQAPGQGLEWMAWITTSNGNTNYAPKLQGRVTMTTDTSTSTAYMELRSLKSDDTAVYYCARGGRTGYFDYWGQGTLVTVSS VL: not shown | binds

The binders below were run against T3, soluble hetero-EPOR (EPOR-CD131-Fc) (human, UniProt P19235 25-250; P32927 17-443) (assay: Octet BLI, EPOR-CD131-Fc on anti-human Fc sensor, 10 nM EPO +/- hybridoma supernatant; competitor EPO).
T3 construct: extracellular domain; also called soluble EPOR-CD131-Fc; not shown: human Fc (captured by anti-human Fc)
T3 sequence (looked up) 1: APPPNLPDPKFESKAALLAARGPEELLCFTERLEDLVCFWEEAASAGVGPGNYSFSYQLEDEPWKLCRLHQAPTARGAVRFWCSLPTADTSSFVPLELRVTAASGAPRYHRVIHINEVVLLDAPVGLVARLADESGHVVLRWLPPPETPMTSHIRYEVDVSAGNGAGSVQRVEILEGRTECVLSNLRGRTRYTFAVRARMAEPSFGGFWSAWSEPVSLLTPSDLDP
T3 sequence (looked up) 2: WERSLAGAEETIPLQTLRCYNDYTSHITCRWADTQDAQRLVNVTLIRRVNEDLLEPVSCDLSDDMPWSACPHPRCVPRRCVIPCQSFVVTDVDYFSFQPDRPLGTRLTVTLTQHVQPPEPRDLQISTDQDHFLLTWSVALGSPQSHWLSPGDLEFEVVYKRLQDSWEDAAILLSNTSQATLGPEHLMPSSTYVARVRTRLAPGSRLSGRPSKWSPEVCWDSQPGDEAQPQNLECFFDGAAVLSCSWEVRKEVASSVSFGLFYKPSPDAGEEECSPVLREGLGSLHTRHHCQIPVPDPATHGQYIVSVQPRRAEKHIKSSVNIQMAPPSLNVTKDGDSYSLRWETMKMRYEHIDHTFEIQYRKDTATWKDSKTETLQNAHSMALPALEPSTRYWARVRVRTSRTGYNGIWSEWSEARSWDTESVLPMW

Row | Binder | % Inhibition [%]
4 | EPORab - M38 (antibody, V domains shown, hybridoma supernatant, ATX-GK mouse; also called hybridoma clone M38) VH: QVQLVESGGGVVQPGRSLRLSCAASGFTFSSYGMHWVRQAPGKGLEWVAFIWYDGRNKNYVDSVKGRFTISRDNSKNTLYLQMNSLRAEDTAVYYCARDRGDYVFDYWGQGTLVTVSS VL: not shown | 0.5
5 | EPORab - M9 (antibody, V domains shown, hybridoma supernatant, ATX-GK mouse; also called hybridoma clone M9) VH: QVQLQESGPGLVKPSQTLSLTCDISGDSVSSNSAAWNWIRQSPSRGLEWLGRTYYRSKWYNDYAVAVKSRITINPDTSKNQFSLQLNSVTPEDTAVYYCARESSGWYEDYYYYYMDVWGKGTTVTVSS VL: not shown | 18.1
6 | EPORab - M87 (antibody, V domains shown, hybridoma supernatant, ATX-GK mouse; also called hybridoma clone M87) VH: QVQLVQSGAEVKKPGASMKVSCKASGYTFTQNHISWVRQAPGQGLEWMGWISAYSGNTNYAWKFQGRVTMTTDTSTNTAYMELRSLRSDDTAVYYCARDRGNWNDFAYWGRGTLVTVSS VL: not shown | 11.5
7 | EPORab - M41 (antibody, V domains shown, hybridoma supernatant, ATX-GK mouse; also called hybridoma clone M41) VH: QVQLVESGGGLVQPGRSLRLSCAASGFTFDDYAIHWVRQAPGKGLEWVSGISYNSENIGYADSVKGRFTISRDNAKNSLYLQMNSLRSEDTALYYCAKDMFLTWFSSFDYWGQGTLVTVSS VL: ETKLTQSPGTLSLSPGERTTLSCRASQSISNNYLAWYQQKPGQAPRLLIYRASTRATGIPDRFSGSGSGTDFTLTIRRLEPEDFAVYYCQRYGRSPLTFGGGTKVEIK | 18.7
8 | EPORab - M26 (antibody, V domains shown, hybridoma supernatant, ATX-GK mouse; also called hybridoma clone M26) VH: QVQLVQSGVEVKKPGASVKVSCKASGYAFSNNDISWVRQAPGQGLEWMAWITTSNGNTNYAPKLQGRVTMTTDTSTSTAYMELRSLKSDDTAVYYCARGGRTGYFDYWGQGTLVTVSS VL: not shown | 31.3
9 | EPORab - M37 (antibody, V domains shown, hybridoma supernatant, ATX-GK mouse; also called hybridoma clone M37) VH: QVQLQESGPGLVKPSGTLSLTCAVSGGSITTNNWWSWVRQSPGKGLEWIGEIYHSGNTNYNPSLKSRVTMSVDKSKNQFSLNLNSVIVADTAVYYCASALGTYYGAFDTWGQGTMVTVSA VL: DIQMTQSPSSLSASVGDRVTITCRASQSISNYLNWYQQKPGKAPKLLIYAASSLQSGVPSRFSGSGSGTDFTLTISSLQPEDFTTYYCQQSYGTPYTFGQGAKLQIK | -7.1
10 | EPORab - M43 (antibody, V domains shown, hybridoma supernatant, ATX-GK mouse; also called hybridoma clone M43) VH: QVQLQESGPGLVKPSGTLSLTCAVSGGSISSSNWWSWVRQPPGKGLEWIGEIYHSGSINYNPSLKSRVTISVDKSKNQFSLKLTSVTAADTAVYYCASALGNYYGAFDLWGQGTMVTVSS VL: DIVMTQSPSSLSASVGDRVTITCRASQTISSYLNWYQQKPGKAPKLLICAASSLQGGVPSRFSGSGSGTDFTLTISSLQPEDFAPYYCQQSYSTPYTFGQGTKLEIK | -11.4
11 | EPORab - M80 (antibody, V domains shown, hybridoma supernatant, ATX-GK mouse; printed VH equals that of M2; also called hybridoma clone M80) VH: QVQLVESGGGLVKPGGSLRLSCAASGFTFSDSYMSWIRQAPGKGLEWVSYISNSGSYMYYADSVKGRFTISRDNAKNSLYLQMNNLRAEDTAVYYCARDKLGIGDYWGQGTLVTVSS VL: not shown | -1.8
12 | EPORab - M24 (antibody, V domains shown, hybridoma supernatant, ATX-GK mouse; also called hybridoma clone M24) VH: EVQLVESGGGLVKPGGSLRLSCAASGFTFTNAWMNWVRQAPGKGLEWIGRIKSKTAGETTDYAAPVKGRFTISRDDSKNTLYLQMNSLKTEDTAVYYCTTDPDYGDPYYYYYFMDVWGKGTTVTVSS VL: DIQMTQSPSSLSASIGDRVTISCRASQSISSYLNWYQQKPGKAPKLLIYGASSLQSGVPSRFSGSGSGTDFTLTISSLQPEDFATYYCQQSYSLPLTFGGGTKVEIK | 9.5
13 | EPORab - M19 (antibody, V domains shown, hybridoma supernatant, ATX-GK mouse; also called hybridoma clone M19) VH: QLQLQESGPGLVKPSETLSLTCTVSGGSISSSNHYWGWIRQPPGKGLEWIGTLYYSGSTYYEPSLKSRVTISVDTSMNQFSLNLSSVTATDTAVYNCARGDRYGPFDYWGQGTLVTVSS VL: DIVMTQSPSSLSASVGDRVTITCRASQGIRDDLGWYQQKPEKAPKRLICAASSLQSGVPSRFSGSGSGTEFTLTISSLQPEDFATYYCLQYNRYPWTFGQGTKVEIK | 10.4
14 | EPORab - M54 (antibody, V domains shown, hybridoma supernatant, ATX-GK mouse; also called hybridoma clone M54) VH: QLQLQESGPGLVKPSETLSLTCSVSGGSISSSGYYWGWIRQPPGKGLDWIGTIYYSGNTNYNPSLNSRVTISVDTSRNQFSLKLRSVTAADTAVYYCARGYSYGPFDYWGQGTLVTVSS VL: EIVMTQSPATLSVSPGERATLSCRASQSVSSNLAWYQLKPGQAPRLLIYGASTRATGIPARFSGSGSGTEFTLTISSLQSEDFAVYYCHPYNNWPLTFGGGTKVEIK | 16
15 | EPORab - M71 (antibody, V domains shown, hybridoma supernatant, ATX-GK mouse; also called hybridoma clone M71) VH: QVQLVESGAEVKKPRASVKVSCKTSGYTFTRHYMHWVRQAPGQGLEWMGIINPNNNSTSYAQKFQGRITMTRDTSTSTVYMELSSLRSEDTAVYYCARFRIVGTTLYFDYWGQGTLVTVSS VL: EIVMTQSPATLSVSPGERATLSCRASQSVSSNLAWYQLKPGQAPRLLIYGASTRATGIPARFSGSGSGTEFTLTISSLQSEDFAVYYCHPYNNWPLTFGGGTKVEIK | 0.1
16 | EPORab - M1 (antibody, V domains shown, hybridoma supernatant, ATX-GK mouse; also called hybridoma clone M1) VH: QVQLQESGPGLVKPSQTLSLTCTVSGGSISSGGYYWSWIRQHPGKGLEWIGNIYYSGNPYYNPSLKSRLIISVDTSKNQFSLRLNSVTAADTAVYYCATFYYGSGSYYNEDYWGQGTLVTVSS VL: DIQMTQSPSSLSASVGDRVTITCRASQGIRIDLGWYQQKPGKAPKRLIYAASSLKSGVPSRFSGSGSGTEFTLTISSLQPEDFTTYFCLQHNSYPYTFGQGTKLEIK | 31.2
17 | EPORab - M2 (antibody, V domains shown, hybridoma supernatant, ATX-GK mouse; also called hybridoma clone M2) VH: QVQLVESGGGLVKPGGSLRLSCAASGFTFSDSYMSWIRQAPGKGLEWVSYISNSGSYMYYADSVKGRFTISRDNAKNSLYLQMNNLRAEDTAVYYCARDKLGIGDYWGQGTLVTVSS VL: DIQMTQSPSSLSASVGDRVTITCRASQGIRNDLGWFQQKPGKAPKRLIYAASRLQSGVPSRFSGSGSGTEFTLTISSLQPEDFATYCCLQHHTYPPTFGQGTKVEIK | 93.6
18 | EPORab - M52 (antibody, V domains shown, hybridoma supernatant, ATX-GK mouse; also called hybridoma clone M52) VH: QLQLQESGPGLAKPSETLSLTCTVSGVSISSNSYYWGWIRQPPGKGLEWIGNIYHSGRTYYNPSLRSRVTISVDTSKNQFSLKLNSVTAADTAVYYCARGYSYGAFDYWGQGTLVTVSS VL: DIQMTQSPSSLSASVGDRVTITCRASQGIRNDLGWYQQKPGKAPKRLIYAASSLQSGIPSRFSGSGSGTEFTLTISSLQPEDFATYYCLQHNNYPWTFGQGTKVEIK | 7.4
